Experimental data: IntAct's records for PubMed 28319063

B1: Partner and localizer of BRCA2 (Mus musculus), Q3U0P1 (parent)
chain: MEELSGKPLSYAEKEKLKEKLAFLKKEYSRTLARLQRAKRAEKAKNSKKAIEDGVPQPEASSQLSHSESINKGFPCDTLQSNHLDEETGENISQILDVEPQSFNCKQGKEVLHTPRAGDIQGQLLHSTSSPDGKKEQNTLPGTTKTPWEKSSVSQEKEDYFDTNSLALLGKHRKGQESISRKNSRTPVSEKTHLLSLRSQIPDPPALVTGIGEGILIPPSGKSERGIDTLVRGNTVSAEAAVPSCTASNSNHSQHLEHTPPKSGCKITTQGPASSTNLVAQDQKMTIFTVNSVVYKAVRAHGQLPGSPNSCSVNDLTHSNLPANSTPNSKSLKSPSNTVDERNEPLQEDEILGPSKNFNLAAVSPPSTESQIHSCTMLEGLLFPAEYYVRTTRRMSDCQRKIALEAVIQSHLGVKKKELKKKTKATKAVVLSSEDTDQSESGMLDTSTGQSSSGSLSQKLLSPAEVSSPPGPAGKATTPPPGRGHRGKRKSARTSTLGHCQLLFPPCAALAVNRSKGKFTKHKCQNRGVVIHDFELPDEDFGLLKLEKLKSCSEKLIESPDSKNCGERLPREGNHAALEELQRDSETEGLEEELTVPPGEAYRPGPTLRRQPGSKDLSSSIVLFTPADTAAPNDSGRPPPSLCSPAFPILGMTPALGSQAAGETLSTEAAQPCSTSQPPLLGDTNSLVNNSKQCNSSACSPKPDTNLQASGRQGQPACDSDSGPQATPLPVESFTFRENQLCGNACLELHEHSTEQTETADRPACDNLNPGNLQLVSELKNPSSSCSVDVSAMWWERAGAKEPCIVTACEDVVSLWKPLNSLQWEKVHTWHFTEVPVLQIVPVPDVYNLICVALGSLEIREIRALLCSSGDDSEKQVLLKSGDIKAMLGLTKRRLVSSTGTFCNQQIQIMTFADDGSSKDEQLLMPPDETVLTFAEVQGTQEALLGTTTVNSIVIWNLKTGQLLKKMHIDDSYQASVCHGAYSEKGLLFVVVSQPCAKESQALGSPVFQLLVINPKTAQSVGVLLCSLPQGQAGRFLEGDVKDHVAAAVLTSGTIAIWDLLLGHCTALLPPVSDQSWSLVKWSGTDSHLLAGQKDGNIFIYRYF

Variants of: B1
Settings: with brca1_human BRCA1, P38398
Sequence of brca1_human BRCA1, P38398 (P38398 whole entry, looked up): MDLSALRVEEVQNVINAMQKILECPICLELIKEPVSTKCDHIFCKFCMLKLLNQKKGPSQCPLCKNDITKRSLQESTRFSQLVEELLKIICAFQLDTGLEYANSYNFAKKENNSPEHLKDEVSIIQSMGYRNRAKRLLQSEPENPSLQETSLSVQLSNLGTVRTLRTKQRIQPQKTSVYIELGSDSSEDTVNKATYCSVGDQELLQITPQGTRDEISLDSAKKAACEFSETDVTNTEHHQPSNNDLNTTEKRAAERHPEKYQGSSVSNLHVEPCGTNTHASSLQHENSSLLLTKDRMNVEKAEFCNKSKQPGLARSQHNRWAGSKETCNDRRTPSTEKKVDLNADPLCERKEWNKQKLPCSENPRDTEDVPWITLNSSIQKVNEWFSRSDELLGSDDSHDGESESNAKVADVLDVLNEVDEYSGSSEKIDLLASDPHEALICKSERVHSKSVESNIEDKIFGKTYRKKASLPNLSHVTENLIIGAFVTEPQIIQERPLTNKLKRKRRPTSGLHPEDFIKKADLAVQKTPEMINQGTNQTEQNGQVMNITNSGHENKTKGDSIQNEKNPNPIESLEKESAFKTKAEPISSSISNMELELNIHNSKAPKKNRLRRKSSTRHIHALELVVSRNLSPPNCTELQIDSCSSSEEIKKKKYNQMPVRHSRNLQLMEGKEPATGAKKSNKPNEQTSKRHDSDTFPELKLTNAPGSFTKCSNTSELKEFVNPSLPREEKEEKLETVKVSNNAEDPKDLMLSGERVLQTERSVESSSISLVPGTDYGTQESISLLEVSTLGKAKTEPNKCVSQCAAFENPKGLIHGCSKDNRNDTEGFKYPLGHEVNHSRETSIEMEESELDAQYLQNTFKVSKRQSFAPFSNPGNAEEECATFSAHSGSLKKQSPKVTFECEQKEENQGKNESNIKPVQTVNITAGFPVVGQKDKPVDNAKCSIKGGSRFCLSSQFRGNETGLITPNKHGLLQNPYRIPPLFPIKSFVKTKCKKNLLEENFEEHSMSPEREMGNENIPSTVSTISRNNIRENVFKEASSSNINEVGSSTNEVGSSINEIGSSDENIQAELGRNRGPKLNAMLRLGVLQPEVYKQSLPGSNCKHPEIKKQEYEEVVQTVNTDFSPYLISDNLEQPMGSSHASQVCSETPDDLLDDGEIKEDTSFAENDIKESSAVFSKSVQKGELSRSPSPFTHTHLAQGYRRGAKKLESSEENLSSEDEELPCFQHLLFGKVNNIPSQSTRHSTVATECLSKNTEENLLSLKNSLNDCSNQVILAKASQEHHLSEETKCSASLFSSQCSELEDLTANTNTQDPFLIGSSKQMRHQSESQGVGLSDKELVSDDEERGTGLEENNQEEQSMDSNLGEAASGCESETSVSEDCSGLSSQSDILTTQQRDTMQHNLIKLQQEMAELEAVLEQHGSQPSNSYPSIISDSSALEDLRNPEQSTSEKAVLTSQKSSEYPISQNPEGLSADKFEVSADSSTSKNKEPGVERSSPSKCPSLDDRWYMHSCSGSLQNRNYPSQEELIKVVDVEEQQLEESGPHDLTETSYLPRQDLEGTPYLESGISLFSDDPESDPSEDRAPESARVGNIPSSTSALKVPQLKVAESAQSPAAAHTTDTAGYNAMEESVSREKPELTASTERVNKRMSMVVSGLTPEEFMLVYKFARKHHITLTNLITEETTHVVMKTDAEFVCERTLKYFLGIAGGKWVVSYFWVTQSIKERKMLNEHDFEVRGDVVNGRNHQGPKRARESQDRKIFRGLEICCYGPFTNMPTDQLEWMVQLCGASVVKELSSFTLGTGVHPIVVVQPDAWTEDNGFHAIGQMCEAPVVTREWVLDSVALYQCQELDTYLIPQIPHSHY

Variant | effect of a mutation on the interaction
K18R | with no effect
L35P | disrupting interaction
Y28C | disrupting interaction
R37H | with no effect
